# Assays:
# Assay in all cases: cryo-EM structure
# [1] = target: Bufavirus 2 (BuV2) VP2, assembled as virus-like particles (Bufavirus 2 (BuV2))
# [2] = target: Bufavirus 1 (BuV1) VP2, assembled as virus-like particles (Bufavirus 1 (BuV1))
# [3] = target: Bufavirus 3 (BuV3) VP2, assembled as virus-like particles (Bufavirus 3 (BuV3))
substance,measurement,setting,value
"Bufavirus 2 (BuV2) VP2, assembled as virus-like particles (natural protein)",stoichiometry N,[1],60
"Bufavirus 1 (BuV1) VP2, assembled as virus-like particles (natural protein)",stoichiometry N,[2],60
"Bufavirus 3 (BuV3) VP2, assembled as virus-like particles (natural protein)",stoichiometry N,[3],60
